In the supplement of paper PMC10567573:

B1: NEK8 (parent)
chain: VVGTPCYISPELCEGKPYNQKSDI
B2: NCF4 (parent)
chain: FGPDSKSSALACTLPTLPAKVYVG

Variants of: B1
Experiment: protein stability index of a GFP-peptide fusion (GPS, HEK-293T) (PSI 1-6); higher = more stable
Conditions: c terminus: a fixed tail appended
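Further: lentivirally expressed fusions sorted by FACS into six bins by GFP to DsRed ratio, PSI derived from sequencing read proportions per bin multiplied by bin number.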

Protein stability index: each site, then its substitutions
Y7: Q 4.35 | A 3.94 | C 4.16 | P 4.16 | G 3.98
S9: M 2.4 | E 3.16 | T 2.61 | D 3.44 | W 2.25 | L 1.68
V2: L 3.58 | F 3.12 | N 3.63 | C 2.89 | I 3.56 | D 3.9 | H 3.68 | E 4.59 | Y 3.23 | M 3.23
C13: A 2.71 | N 3.23 | T 2.94 | V 2.95
S22: N 2.58 | I 2.5 | L 2.63 | Y 2.37 | P 3.08 | K 3.12 | M 2.51
G15: H 2.84 | P 2.56 | F 2.15 | I 2.41 | E 2.8 | K 3.45 | D 2.93
C6: S 3.08 | H 2.47 | A 2.81
P5: W 1.66 | V 1.89 | G 3.27 | D 2.98 | C 2.56 | E 3.53 | S 3.36 | Q 3.62
E11: M 2.32 | W 1.08 | Q 2.31 | C 1.68 | T 2.48 | Y 2.05 | G 2.54 | I 2.52
N19: E 2.94 | M 2.88 | R 2.45 | S 3.1 | W 2.02 | C 2.46 | Y 2.39 | G 2.48
T4: G 3.34 | P 3.46 | R 2.79 | V 1.99 | A 2.95
D23: G 1.82 | S 2.17 | N 2.56 | H 2.94 | W 1.25 | K 3.02
Y18: D 3.53 | Q 3.5 | V 3.67 | A 3.6 | T 3.68 | L 2.8 | C 3.05 | F 2.67
Q20: L 2.55 | S 2.49 | K 3.15 | Y 2.14 | G 2.71 | A 2.44 | N 3.3 | P 2.31 | R 2.84 | D 2.54
I8: R 3.7 | P 4.29 | S 3.98 | V 4.03 | K 4.14 | A 4.4 | N 4.4
P17: F 1.99 | S 3.02 | Y 2.27 | N 3.12 | W 1.65 | K 2.99 | D 3.05
G3: L 1.63 | S 3.01 | H 2.74 | K 2.9 | Q 2.5 | P 3.38 | E 2.7 | V 2.07 | F 1.48 | T 3.01
K16: N 3.13 | A 2.16 | S 2.17 | D 3.14 | L 2.07 | T 2.54 | W 1.55
L12: Y 2.27 | S 3.15 | N 3.62 | E 4.11 | K 3.69 | V 2.83
V1: P 4.25 | D 4.53 | S 4.03 | H 2.77 | L 3.1
E14: C 2.73 | Q 2.37 | R 2.51 | L 2.67 | N 2.52 | M 2.28
K21: V 1.99 | S 3.01 | E 2.48 | D 2.93 | L 2.41 | A 2.99 | Y 2.2 | C 2.51 | P 2.45
P10: M 2.24 | Y 1.91 | T 2.74 | D 3.23 | W 1.9 | Q 3.49 | R 2.98
I24: F 2.51 | D 4.21 | K 3.63 | M 2.95 | A 3.45 | V 3.27

Variants of: B2
Experiment: as above
Conditions: c terminus: a fixed tail appended

Protein stability index: each site, then its substitutions
F1: C 2.67 | A 3.11
